Reference: the supplement of paper PMC12764529
± gives the half width of the 95% confidence interval.

Columns and labels:
[1] = folding stability dG unfold (combined trypsin and chymotrypsin); higher = more stable
In short: (§1)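 Only designs with AlphaFold2 dimer inter-PAE above 15 were retained; each was a mini-protein under 80 residues with no cysteine, in a PA-tagged cDNA display construct. After digestion with trypsin and chymotrypsin and sequencing, K50 was inferred by Bayesian fitting of counts, and unfolding free energy was derived per protease or combined against a sequence-predicted unfolded-state K50 and a shared folded-state K50.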

[2] = folding stability dG unfold from trypsin proteolysis; higher = more stable
In short: as §1

[3] = folding stability dG unfold from chymotrypsin proteolysis; higher = more stable
In short: as §1

| Sequence | folding stability dG unfold [1] [kcal/mol] | folding stability dG unfold [2] [kcal/mol] | folding stability dG unfold [3] [kcal/mol] |
| --- | --- | --- | --- |
| SAGGSAGGSAAEVEVETLELEIDGVKITVTRVRNADGELLYFARIEVRPAPPPPPVSLEDLSAGGSAGGSAG [r3_68_TrROS_Hall] | 3.23 ± 0.12 | 3.02 ± 0.093 | 3.25 ± 0.074 |
| SAGGSAGGSAAKVISVNPETGEVVVEYPDGSVGYFKVKGGVVEEVRSSPVLPVPEDDPLFTSAGGSAGGSAG [r3_406_TrMRF] | 1.15 ± 0.077 | 1.05 ± 0.032 | 1.2 ± 0.088 |
| SAGGSAGGSAAMTVSEVSSSPDPSSDYLSFEVRTTETVKVPGTKAPVTTTVTTTPTKVSKLLSAGGSAGGSA [r18_41_JUSTAS] | -0.111 ± 0.12 | -0.237 ± 0.12 | -0.177 ± 0.25 |
| SAGGSAGGSAANVTREPRFDPSTNLVRTLVRFPDGSVREEILEITKNPDGTLTYKRFERPPSAGGSAGGSAG [r3_474_JUSTAS] | 1.19 ± 0.14 | 0.383 ± 0.12 | 1.59 ± 0.18 |
| SAGGSAGGSAATKQITYTPPGSNRTYSFTATLTEEDPVTGRKLLELTLPDGTPITLPEGELGSAGGSAGGSA [r18_334_JUSTAS] | 0.163 ± 0.067 | 0.191 ± 0.061 | 0.0349 ± 0.08 |
| SAGGSAGGSAAVILPEGTLYFTLPDGSRAAATVDPATGTVHIRLYSPDGVPLAEADIPIDPSAGGSAGGSAG [r3_447_TrMRF] | 1.83 ± 0.07 | 0.947 ± 0.024 | 2.26 ± 0.037 |
| SAGGSAGGSAAYTTPDGTNIILKDPNRPVVSLYKKDPSTNTWTPVSTLPISEVPEEILELLSAGGSAGGSAG [r3_241_JUSTAS] | 0.599 ± 0.062 | 0.426 ± 0.022 | 0.583 ± 0.079 |
| SAGGSAGGSADDEVVEIVDVLPLPNRPVLVVKVRGPDGQTKVYDPATGKWLTPEEAKAALSSAGGSAGGSAG [r3_206_TrMRF] | 1.61 ± 0.086 | 1.09 ± 0.032 | 1.98 ± 0.045 |
| SAGGSAGGSADGNKPPEIKINLEVERHPNGMVEITATLHWPGGKEFPVRIMYNPDKIFIEISAGGSAGGSAG [r3_259_TrROS] | 3.19 ± 0.14 | 2.95 ± 0.31 | 3.4 ± 0.16 |
| SAGGSAGGSADGWVFLVGADVEVEPVPASLLNVPRSVPGEENPYVVKLKEVSFLLVPAKELSAGGSAGGSAG [r3_488_TrMRF] | 0.185 ± 0.16 | -0.906 ± 0.39 | 0.734 ± 0.23 |
| SAGGSAGGSADIGDPSKIKPKPLHFSFPVKIKLSFEYNGPDGVKKTFSLELTFTVVDKGLGSAGGSAGGSAG [r3_380_TrMRF] | 3.89 ± 0.44 | 3.15 ± 0.2 | 4.14 ± 0.21 |
| SAGGSAGGSADLLEELPGLEVVDIERKGNSVVALFRNKETGELVRVTVDADGNITVEVLPLESAGGSAGGSA [r18_26_TrROS_Hall] | 3.99 ± 0.11 | 3.7 ± 0.1 | 4.02 ± 0.072 |
| SAGGSAGGSADWQKLEYPFPPGMPLDNIKEELRDLFPGKKPTIEIDKIEPHNGQYWIKITVKSAGGSAGGSA [r18_360_TrROS] | 0.291 ± 0.075 | 0.42 ± 0.047 | 0.0785 ± 0.15 |
| SAGGSAGGSAEELLKKLAEELGLEEGDEVTIEVDGKLIKIYFNKDGKIVKVEVYELDPEDLSAGGSAGGSAG [r3_468_TrROS_Hall] | 3.25 ± 0.079 | 2.01 ± 0.11 | 3.59 ± 0.087 |
| SAGGSAGGSAEEVTVTVKIERTTEDGEKVEETITVTVPAEKLDELKKAAEEAGFTVVEVTPSAGGSAGGSAG [r3_453_TrROS_Hall] | 2.38 ± 0.1 | 2.68 ± 0.14 | 2.19 ± 0.14 |
| SAGGSAGGSAEKGIAFILLVTEEGDLEKALETAEELKKELEEKTGKPVEVVVNIFVVEPELFSAGGSAGGSA [r18_515_TrMRF] | 2.24 ± 0.14 | 1.81 ± 0.048 | 2.38 ± 0.084 |
| SAGGSAGGSAEKVITVWIPLPPGQGVDEIAKEIARYLGFPNIKIDNIQYDPEDGWYQITFKLSAGGSAGGSA [r18_481_TrROS] | 3.97 ± 0.061 | 3.48 ± 0.096 | 4.163 ± 0.032 |
| SAGGSAGGSAEPDIEVVVTPVPGPYGPLYYRVEVRIPEAGRTVFTYARLDDPEEIEGIPIESAGGSAGGSAG [r3_432_TrMRF] | 0.7 ± 0.077 | 0.829 ± 0.066 | 0.545 ± 0.16 |
| SAGGSAGGSAEPPEVRIRLEVRLLPDGTLEVTAEIEVDGKTYRITVTVDAKTNEIVSVSIEPSAGGSAGGSA [r18_459_TrROS_Hall] | 4.3 ± 0.46 | 4.44 ± 0.36 | 3.89 ± 0.21 |
| SAGGSAGGSAEPPPLVVVTEVRTITVEIDLDDLSEEEREALENLDTVTITVTRVVVVPREDLSAGGSAGGSA [r18_127_TrROS_Hall] | 1.84 ± 0.46 | 2.42 ± 0.22 | 1.39 ± 0.22 |
| SAGGSAGGSAETVTITLTVPPGASVEEILAALKAKYPDITSVSVERREDGYLKVTVTVRLDSAGGSAGGSAG [r3_371_TrROS_Hall] | 4.46 ± 0.074 | 5.28 ± 0.47 | 4.02 ± 0.068 |

| Sequence | folding stability dG unfold [1] [kcal/mol] | folding stability dG unfold [2] [kcal/mol] | folding stability dG unfold [3] [kcal/mol] |
| --- | --- | --- | --- |
| SAGGSAGGSAEWKPITYWVPPGQSIKEIADDLMDKNPRITDAEMEYDPDGYMKVTLTVRLDSAGGSAGGSAG [r3_371_TrROS] | 0.552 ± 0.086 | 0.493 ± 0.056 | 0.505 ± 0.14 |
| SAGGSAGGSAEYRVVVVPPVPTVLIFVKPDRVYVVDLDPATGRATIRPVNVPPNVLPESLLTSAGGSAGGSA [r18_59_TrMRF] | 1.52 ± 0.056 | 1.27 ± 0.02 | 1.67 ± 0.06 |
| SAGGSAGGSAFKLPPGKKITIFFDPENGNFAIMVPDGNERRVPMPAEELIKLGFPVEIIGPWSAGGSAGGSA [r18_125_TrROS] | 0.517 ± 0.19 | 0.365 ± 0.14 | 0.566 ± 0.25 |
| SAGGSAGGSAFQIEDLKIEKVEFNPDGMVHNELEITLPGGKELEVSIMIDPKKPGKLMIMIVSAGGSAGGSA [r18_97_TrROS] | 1.66 ± 0.31 | 1.98 ± 0.11 | 1.42 ± 0.049 |
| SAGGSAGGSAGAKKLPPGQVALRIEPVTVTVTDEDGKERTVTRIRLVDAATGEEYEFTFPSAGGSAGGSAGG [r17_266_TrROS_Hall] | 0.744 ± 0.15 | 0.829 ± 0.1 | 0.531 ± 0.1 |
| SAGGSAGGSAGAPPDVEEVTVTVTITNPDGSTTTTTVTATPEELAALAAAPGRPTAVSAESAGGSAGGSAGG [r17_313_JUSTAS] | 0.595 ± 0.17 | 0.635 ± 0.072 | 0.486 ± 0.015 |
| SAGGSAGGSAGASPSVPFTVKVTIKSPNGLSTKTISLSSLEDLEALPLPNVVEIEITPLSSAGGSAGGSAGG [r17_290_JUSTAS] | 0.907 ± 0.14 | 1.04 ± 0.049 | 0.78 ± 0.14 |
| SAGGSAGGSAGDAEEIADEIRENMYGPDGKYVPKEVEIKEIEPPPGQLKVEIEMPPGMPISAGGSAGGSAGG [r17_519_TrROS] | 1.32 ± 0.16 | 1.81 ± 0.13 | 0.954 ± 0.077 |
| SAGGSAGGSAGDDGSDLPVVDLKVSISPFVRPLPNGEEVTVWKVLVENPGSSSRSEFYFGSAGGSAGGSAGG [r17_59_TrMRF] | 0.283 ± 0.15 | 0.337 ± 0.12 | 0.118 ± 0.19 |
| SAGGSAGGSAGDDNKKKPKPKIEIQPVRMTMPFPENGLRIEIDIWVIKDGNIIFMIEWYPSAGGSAGGSAGG [r11_463_TrROS] | 3.3 ± 0.11 | 2.92 ± 0.12 | 3.72 ± 0.17 |
| SAGGSAGGSAGDEKYTLTVTIPVPKNAPVLVGAEKGYEVIDLNPDAPVEEGYITVKVEFGSAGGSAGGSAGG [r11_701_TrMRF] | -0.391 ± 0.15 | -0.376 ± 0.086 | -0.833 ± 0.14 |
| SAGGSAGGSAGDEPNDVVKIDFTFFFEDGYMIEMDIVIVPNGNIAIEIEIEPIKPPDEGDSAGGSAGGSAGG [r11_998_TrROS] | 2.09 ± 0.31 | 2.06 ± 0.39 | 1.9 ± 0.13 |
| SAGGSAGGSAGDFELDFEWHRTNDHVVLSNKARDPDNGKPLYISIIFDPDPGKLDISIMPSAGGSAGGSAGG [r17_242_TrROS] | 0.0261 ± 0.083 | 0.396 ± 0.036 | -0.858 ± 0.59 |
| SAGGSAGGSAGDGINFTLDIPIEGDFELRDVYLTPLEPENRRAFFLLRYKDGPVLLTLPLSAGGSAGGSAGG [r11_1013_TrMRF] | 1.09 ± 0.1 | 1.21 ± 0.12 | 0.922 ± 0.18 |
| SAGGSAGGSAGDIPAIPKVIFIPYPIEKIEVFEDSVVVRVIHPDGGSETIVFPDRALILGSAGGSAGGSAGG [r11_957_TrMRF] | 1.53 ± 0.11 | 1.6 ± 0.042 | 1.47 ± 0.03 |
| SAGGSAGGSAGDKNGKPPPKIEIVPIRMSFRFPELGWWIEIDIYVIKDPAIMISISLYPYSAGGSAGGSAGG [r11_883_TrROS] | 4.91 ± 0.35 | 3.61 ± 0.22 | 5.25 ± 0.17 |
| SAGGSAGGSAGDNFKIKIESFNIMRLPDGYVMISIKIEITVGDKPVEITIMIIIPPGAPISAGGSAGGSAGG [r17_352_TrROS] | 5.68 ± 0.41 | 4.03 ± 0.15 | 5.74 ± 0.18 |
| SAGGSAGGSAGDPKKKPPKPILGFELAEFEITTEDGTKYKVKALIIYFPDTGTKVIFVLGSAGGSAGGSAGG [r11_1024_TrMRF] | 4.33 ± 0.18 | 2.78 ± 0.13 | 4.73 ± 0.13 |
| SAGGSAGGSAGDTSVEYEVSVTVEVFPLPDYALVKVTLEVDYPDGSKEKVEYVFLVSPYEGSAGGSAGGSAG [r3_330_TrMRF] | 3.04 ± 0.1 | 2.56 ± 0.19 | 3.35 ± 0.082 |
| SAGGSAGGSAGDVPPSETVTITVSSEAEKEAIKKEHPEVNLTFTEAEPPVAFDPTSDVTASAGGSAGGSAGG [r17_126_JUSTAS] | 1.21 ± 0.17 | 0.842 ± 0.096 | 1.27 ± 0.15 |
| SAGGSAGGSAGEEEELPLVIRVRFKGPEEVEIEIEAESLEDALAAIESLPDIEEIEILPRSAGGSAGGSAGG [r11_587_TrROS_Hall] | 1.61 ± 0.055 | 0.632 ± 0.034 | 1.982 ± 0.0079 |
